Among the targets are HLA-A*26:01; HLA-A*24:02; HLA-A*01:01; HLA-A*30:02; HLA-A*23:01; HLA-A*29:02; HLA-B*40:01; HLA-B*44:03; HLA-A*32:01; HLA-A*30:01; HLA-B*44:02.
Test in all cases: IEDB peptide-MHC binding, purified MHC/competitive/radioactivity; filed as Kd, often an IC50 or EC50 that approximates it; ≥ and ≤ were set here for values at or beyond the usual limits of such assays
Setting [1] is: source organism: SARS coronavirus Tor2.
Setting [2] is: source organism: Dengue virus 1 Brazil/97-11/1997.
Setting [3] is: source organism: Mammarenavirus choriomeningitidis.
[4] abbreviates: source organism: Dengue virus 2 Jamaica/1409/1983.
Setting [5] is: source organism: Mammarenavirus guanaritoense.
Setting [6] is: source organism: Mammarenavirus tacaribeense.
The mark [7] stands for this setting: source organism: Dengue virus 3 Martinique/1243/1999.
[8] abbreviates: source organism: Lymphocytic choriomeningitis virus (strain Armstrong).
Setting [9] is: source organism: Mammarenavirus brazilense.
The mark [10] stands for this setting: source organism: Mammarenavirus juninense.
The mark [11] stands for this setting: source organism: Mammarenavirus whitewaterense.

Kd data for 25 sequences are collected here from the Immune Epitope Database (IEDB).

Where only a bound is given, the exact number is not on record here.

In general, Kd refers to the free concentration of one partner at which half of the binding sites on the other are occupied at equilibrium, for simple one-to-one binding. With AFRDVLVVL, the Kd in the test with HLA-A*26:01 (setting [1]) turned out to be 13000 nM; with HLA-A*24:02 (setting [1]), 6820 nM; with HLA-A*01:01 (setting [1]) it was 15900 nM; with HLA-A*30:02 (setting [1]) it was 9830 nM; in the test with HLA-A*23:01 (setting [1]), 1970 nM; with HLA-A*29:02 (setting [1]), 14000 nM.

As for NEAKITDIM, the Kd came to 83.1 nM with HLA-B*40:01 (setting [2]) and 4130 nM in the test with HLA-B*44:03 (setting [2]).

Take QLQSPGVADY: the Kd in the test with HLA-A*26:01 (setting [3]) was 7700 nM; in the test with HLA-A*32:01 (setting [3]) it was not below 69900 nM; with HLA-A*01:01 (setting [3]), 290 nM; with HLA-A*30:02 (setting [3]), 43 nM; with HLA-A*30:01 (setting [3]), not below 70400 nM; with HLA-A*29:02 (setting [3]), not below 24900 nM.

Turning to AGPFSQHNY, the Kd with HLA-A*30:02 (source organism: Dengue virus 4 Philippines/H241/1956) was 472 nM.

Turning to LEHGSCVTTM, the Kd in the test with HLA-B*40:01 (setting [4]) worked out at 64.8 nM; with HLA-B*44:03 (setting [4]), 1080 nM.

In the case of IMRNLTNLL, the Kd with HLA-A*24:02 (setting [5]) was not below 33100 nM; with HLA-A*23:01 (setting [5]), 6150 nM; with HLA-A*29:02 (setting [5]), 305 nM.

AYEHKNRSRL: the results for the Kd with HLA-A*24:02 (setting [5]), with HLA-A*23:01 (setting [5]) and in the test with HLA-A*29:02 (setting [5]) were not below 26500 nM, 10200 nM and not below 20900 nM, respectively.

DYDCVSFCY: the Kd in the test with HLA-A*26:01 (setting [1]) was 17600 nM; in the test with HLA-A*24:02 (setting [1]) it was not below 20200 nM; in the test with HLA-A*01:01 (setting [1]), not below 58000 nM; with HLA-A*30:02 (setting [1]), 1400 nM; in the test with HLA-A*23:01 (setting [1]) it was not below 20900 nM; with HLA-A*29:02 (setting [1]), 145 nM.

Regarding SFYCDPKRFF, the Kd amounted to 1980 nM with HLA-A*24:02 (setting [6]), 491 nM with HLA-A*23:01 (setting [6]) and 156 nM with HLA-A*29:02 (setting [6]).

As to NEGVMAVGL, the Kd turned out to be 226 nM with HLA-B*40:01 (setting [7]) and 1810 nM in the test with HLA-B*44:03 (setting [7]).

In the case of LYLYALIYF, the Kd with HLA-A*26:01 (setting [1]) was 12600 nM; in the test with HLA-A*24:02 (setting [1]), 1.01 nM; with HLA-A*01:01 (setting [1]), 5160 nM; with HLA-A*30:02 (setting [1]), not below 81100 nM; with HLA-A*23:01 (setting [1]), 0.0785 nM; with HLA-A*29:02 (setting [1]), 0.143 nM.

Turning to KCWLVTNGSY, the Kd was not below 69700 nM in the test with HLA-A*26:01 (setting [8]); not below 70300 nM in the test with HLA-A*24:02 (setting [8]); 17300 nM with HLA-A*01:01 (setting [8]); 27.4 nM with HLA-A*30:02 (setting [8]); not below 70000 nM with HLA-A*23:01 (setting [8]); 937 nM with HLA-A*29:02 (setting [8]).

As to EALRGFLLY, the Kd with HLA-A*26:01 (setting [9]) is 1580 nM; with HLA-A*32:01 (setting [9]), not below 60200 nM; with HLA-A*01:01 (setting [9]), 3730 nM; with HLA-A*30:02 (setting [9]) it was 2270 nM; in the test with HLA-A*30:01 (setting [9]), 5720 nM; in the test with HLA-A*29:02 (setting [9]), 117 nM.

Consider VEPWLRGNQF, for which the values for the Kd with HLA-B*40:01 (setting [2]) and with HLA-B*44:02 (setting [2]) were 3780 nM and 73 nM, respectively.

In the case of LFDVIPVSY, the Kd with HLA-A*26:01 (setting [5]) is not below 51900 nM; with HLA-A*32:01 (setting [5]), 9750 nM; in the test with HLA-A*01:01 (setting [5]), 613 nM; with HLA-A*30:02 (setting [5]) it was 1910 nM; with HLA-A*30:01 (setting [5]), not below 21100 nM; with HLA-A*29:02 (setting [5]) it was 67.3 nM.

Turning to PYIGSRSQI, the Kd with HLA-A*24:02 (setting [10]) was 1080 nM; in the test with HLA-A*23:01 (setting [10]), 312 nM; with HLA-A*29:02 (setting [10]) it was not below 21000 nM.

As to EEVQVLALEP, the dissociation constant Kd in the test with HLA-B*44:03 (setting [4]) is not below 23400 nM.

As for QFKDNVILL, the Kd with HLA-A*26:01 (setting [1]) is not below 27500 nM; in the test with HLA-A*24:02 (setting [1]) it was 1130 nM; with HLA-A*01:01 (setting [1]), not below 51800 nM; with HLA-A*30:02 (setting [1]) it was not below 40000 nM; in the test with HLA-A*23:01 (setting [1]), 1150 nM; with HLA-A*29:02 (setting [1]), not below 21700 nM.

For the sequence NVSLVKPTVY, the Kd is 16300 nM in the test with HLA-A*26:01 (setting [1]); not below 70300 nM with HLA-A*24:02 (setting [1]); 12400 nM with HLA-A*01:01 (setting [1]); 1170 nM in the test with HLA-A*30:02 (setting [1]); not below 70000 nM with HLA-A*23:01 (setting [1]); 2410 nM with HLA-A*29:02 (setting [1]).

In the case of KVDAIDGEY, the figures for the Kd with HLA-A*01:01 (setting [4]) and in the test with HLA-A*30:02 (setting [4]) were 953 nM and 171 nM, respectively.

For the sequence KEIAETQHG, the Kd with HLA-B*44:02 (setting [4]) was 62.1 nM.

As for SAIFFTTSLF, the Kd turned out to be 452 nM in the test with HLA-A*24:02 (setting [5]), 80.8 nM in the test with HLA-A*23:01 (setting [5]) and 87.9 nM with HLA-A*29:02 (setting [5]).

For the sequence ASLGPLRETY, the Kd is not below 81500 nM in the test with HLA-A*26:01 (setting [1]); not below 70300 nM with HLA-A*24:02 (setting [1]); not below 114000 nM with HLA-A*01:01 (setting [1]); 154 nM in the test with HLA-A*30:02 (setting [1]); not below 70000 nM with HLA-A*23:01 (setting [1]); 557 nM with HLA-A*29:02 (setting [1]).

Turning to IPDVIELAY, the Kd in the test with HLA-A*26:01 (setting [9]) is not below 38300 nM; with HLA-A*24:02 (setting [9]) it was not below 33500 nM; with HLA-A*01:01 (setting [9]), 5510 nM; in the test with HLA-A*30:02 (setting [9]), 2760 nM; with HLA-A*23:01 (setting [9]) it was 18600 nM; in the test with HLA-A*29:02 (setting [9]) it was 3150 nM.

As for YVSSIFLHL, the Kd was 1850 nM with HLA-A*26:01 (setting [11]); not below 51000 nM in the test with HLA-A*32:01 (setting [11]); 514 nM in the test with HLA-A*01:01 (setting [11]); 12500 nM with HLA-A*30:02 (setting [11]); 4820 nM with HLA-A*30:01 (setting [11]); 15.7 nM in the test with HLA-A*29:02 (setting [11]).
